In patent US20240084032A1 (BLUEFIN BIOMEDICINE, published 2024):
Numbering of substitutions follows the chain as printed.

B1: 38E11-vcMMAE (other)
VH: EVQLLESGGGLVQPGGSLRLSCAASGFTFSNYAMNWVRQAPGKGLEWVSAISGGGGSTYYADSVKGRFTISRDNSKNTLYLQMNSLRAEDTAVYYCAKESITMVRGVMDYYGMDVWGQGTTVTVSS
VL: DIQLTQSPSFLSASVGDRVTITCRASQGISSYLAWYQQKPGKAPKLLIYAASTLQGGVPSRFSGSGSGTEFTLTISSLQPEDFATYYCQHLNRFPRTFGQGTKVEIK
modifications: maleimidocaproyl-valine-citrulline-p-aminobenzoyloxycarbonyl-MMAE on hinge region cysteine thiols, positions not given; DAR 3.9
B2: 38E11-PBD (other)
VH: B1 VH
VL: B1 VL
modifications: MA-PEG8-VA-PAB-SG3199 (PBD) on hinge region cysteine thiols, positions not given; DAR 2.3
B3: 10E2 (antibody, V domains shown)
VH: QVQLVESGGGVVQPGRSLRLSCAASGFTFSSYGMHWVRQAPGKGLEWVAVVWYDGTIKYYADSVKGRFTISRDNPKNTLYLQMNSLRAEDTAVYYCASQYSSGWHTDFFDVWGQGTMVTVSS
VL: DIQMTQSPSTLSASVGDRVTITCRASQSISTWLAWYQQKPGKAPKFLIYKASSLESGVPSRFSGSGSGTEFTLTISSLQPDDFATYYCQQYSGYSLTFGGGTKVEIK
notes: also called human antibody 10E2
B4: 27H10 (antibody, human IgG1, V domains shown)
VH: QVQLVQSGAEVKKPGSSVKVSCKASGGTFSSYAMSWVRQAPGQGLEWMGGIIPILGTTNYAQKFQGRVTITADKSTSTAYMELSSLRSEDTAVYYCAREGLYAFDIWGQGTMVTVSS
VL: DIQMTQSPSSLSASVGDRVTITCRASQSISSYLNWYQQKPGKAPKFLIYVASSLQSGVPSRFSGRGSGTDFTLTISSLQPEDFATYYCQQSYSTPWTFGQGTKVEIK
notes: also called human antibody 27H10
B5: 01E2 (antibody, V domains shown)
VH: QVQLVESGGGVVQPGRSLRLSCAASGFTFSSYGMHWVRQAPGKGLEWVAVIWYAGSNKYYADSVKGRFTISRDNSKNTLYLQMNSLRAEDTAVYYCAGWDFDYWGQGTLVTVSS
VL: EIVLTQSPATLSLSPGERATLSCRASQTVPNYLAWYQQKPGQAPRLLIYDASNRATDIPARFSGSGSGTDFTLTISSLEPEDFAVYYCQQRANWPPITFGQGTRLEIK
B6: 05A8 (antibody, V domains shown)
VH: EVQLLESGGGLVQPGGSLRLSCAASGFTFSNYAMSWVRQAPGKGLEWVSAISGRGGSTYYADSVKGRFTISRDNSKNTLYLQMNSLRAEDTAVYYCAKDIVVVPAAKGYVMDAWGQGASVTVSS
VL: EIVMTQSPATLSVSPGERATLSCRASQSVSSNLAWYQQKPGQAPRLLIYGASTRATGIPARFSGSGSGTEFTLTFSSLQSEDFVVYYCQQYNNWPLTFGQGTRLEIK
B7: 18C6 (antibody, human IgG1, V domains shown)
VH: QVQLQESGPGQVKPSETLSLTCTVSGGSISSSFWSWIRQPPGKGLEWIGYIYYSESTNYNPSLKRRVTLSVDTSKNQFSLKLTSVTTADTAVYYCARNIGVAGLFDYWGQGTLVTVSS
VL: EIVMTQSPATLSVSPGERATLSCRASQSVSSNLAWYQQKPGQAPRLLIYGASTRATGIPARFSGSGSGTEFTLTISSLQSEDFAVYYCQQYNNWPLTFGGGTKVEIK
notes: also called 18C06; human antibody 18C6
B8: 41A9 (antibody, human IgG1, V domains shown)
VH: QVQLQQWGAGLLKPSETLSLTCAVYGGSFSDYYWSWIRQPPGKGLEWIGEINHSGSTNYNPSLKSRVTISVDTSKNQFSLKLSSVTAADTAVYYCARDYDVLTGHFYYYYGMDVWGQGTTVTVSS
VL: EIVLTQSPATLSLSPGERATLSCRASQSVRRYLAWYQQKPGQAPRLLIYDASNRATGIPARFSGSGSGTDFTLTISSLEPEDFAVYYCQQRNNWPLTFGGGTKLEIK
notes: also called 41A09; human antibody 41A9
B9: 03B05 (antibody, V domains shown)
VH: QVQLVESGGGVVQPGRSLRLSCAASGFTFSSYGMHWVRQAPGKGLEWVAIIWYDGSNKYYADSVKGRFTISRDNSKNTLYLQMNSLRAEDTAVYYCAKDPSYSSGYYLFDFWGQGTLVTVSS
VL: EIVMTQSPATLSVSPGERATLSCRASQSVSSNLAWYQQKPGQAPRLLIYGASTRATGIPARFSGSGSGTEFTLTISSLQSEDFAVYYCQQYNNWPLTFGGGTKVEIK
notes: also called 3B5
B10: 12C2 (antibody, V domains shown)
VH: QEQLVESGGGVVQPGRSLRLSCVTSGFTFSSYGMHWVRQAPGKGLEWVAVIWYDGTNKYYADTVKGRFTISRDNSKNTLYLQMNSLRAEDTGVYYCAREGCDTISCPYYYYGMDVWGQGTTITVSS
VL: DILMTQSPSSLSASVGDRVTITCRASQGINYYLAWYQQKPGKVPKLLIYTASTLQSGVPSRFSGSGSGTDFTLTISSLQPEDVATYFCQKYNSAPFTFGPGTKLEIK
B11: 14H4 (antibody, V domains shown)
VH: EVQLLESGGDLVQPGGSLRLSCAASGFTFNSYAMSWVRQAPGKGLEWVSVLSGSGGDIHYADSVKGRFTVSRDNSKNMLYLQMNSLRAEDTAVYFCAQQWPQGYWGQGTLVTVSS
VL: B10 VL with L3Q, N30S, Y31I, Y36F, T50A, F87Y, L104V
B12: 03C05 (antibody, V domains shown)
VH: EVQVLESGGGLVQPGGSLRLSCAASGFTFSSYVMSWVRQAPGKGLEWVSGISGSGGSTHYADSVKGRFTISRDNSKNTLYLQMNSLRAEDTALYYCAQQWPQGYWGQGTLVTVSS
VL: B10 VL with L3Q, G28D, N30S, Y31I, Y36F, L46V, T50A, S67T
notes: also called 3C5
B13: 02F3 (antibody, V domains shown)
VH: QVQLVESGGGVVQPGRSLRLSCAASGFSFSDYGIHWVRQAPGKGLEWVAVIWYDGSNKYYADSVKGRFTISRDNSKNTLYLQVNSLIAEDTAVYYCARDRGYSSGWYVDYYYYGMDVWGQGTTVTVSS
VL: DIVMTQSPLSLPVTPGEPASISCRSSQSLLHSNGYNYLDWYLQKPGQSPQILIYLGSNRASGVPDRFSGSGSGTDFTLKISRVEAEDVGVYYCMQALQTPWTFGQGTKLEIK
B14: 04G06 (antibody, V domains shown)
VH: QVQLVESGGGVVQPGRSLRLSCVVSGFTLSSYGMHWVRQAPGKGLEWVAVIWYDGSDKYYADSVKGRFTISRDNSKNTLYLQMNSLRAEDTAVYYCARDDWGFDYWGQGTLVTVSS
VL: DIQLTQSPSFLSASVGDRVTITCRASQDISNYLAWYQQKPGKAPKLLISASTLQSGVPSRFSGSGSGTEFILTISSLQPEDFATYYCQHLNSYPFGQGTKVEIK
notes: also called 4G6
B15: 42C5 (antibody, V domains shown)
VH: EVQLVESGGGLVQPGGSLRLSCAASGFTFSRYWMNWVRQAPGKGLEWVANIKQDGSEKDYVDSVKGRFTISRDNAKNSLFLQMSSLRAEDTAVYYCARVMYSSGWSFDYWGQGTLVTVSS
VL: DIVMTQSPLSLPVTPGEPASISCRSSRSLLHSSGYNFLDWFLQKPGQSPQLLIFLGSDRASGVPDRFSGSGSGTDFTLKISRVETEDVGVYYCMQALQTPITFGQGTRLEIK
B16: 47G7 (antibody, human IgG1, V domains shown)
VH: B15 VH with R31S, N35S, F80Y, S84N, A88V, V99E, M100G, Y101G, S106T
VL: B15 VL with R27Q, Y35H, F41Y, F54Y, D58N, T85A, I101P, R108K
notes: also called human antibody 47G7
B17: 3B11 (antibody, human IgG1, V domains shown)
VH: QVQLQQWDAGLLKPSETLSLTCAVYGGSFSSYYWSWIRQPPGKGLEWIGEINHSGSTSYNPSLKSRVTISIDTSKNQFSLKLNSMTAADTAVYFCAASPYFDYWGQGTLVTVSS
VL: B1 VL with G56S, H90Q, R93S, F94Y
notes: also called 03B11; 3B111
B18: 38E11 (antibody, human IgG1, V domains shown)
VH: B1 VH
VL: B1 VL
notes: also called human antibody 38E11
B19: 50D6 (antibody, V domains shown)
VH: EVQVLESGGGLVQPGGSLRLSCAASGFTFSNYAMNWVRQAPGKGLEWVSAISGGGGSTYYADSVKGRATISRDNSENTLYLQMNSLRAEDTAVYYCAKTSSGWYDSYYDYYGLDVWGQGTTVTVSS
VL: B1 VL with S31N, A43V, A51V, G56S, H90Q, R93S, F94Y, R96F, Q100G, V104L

What follows are binders tested against human CDCP1 endogenously expressed on cancer cell lines (human, UniProt Q9H5V8 30-836) (assay: cell-based or functional assay).
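For Kd in this document: antibody captured for 120 s on the sensor, followed by 300 s association with CDCP1 and a 300–600 s dissociation phase.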

| Binder | EC50 of killing, Cal-12T NSCLC cells, CellTiter Glo, 96 hrs [µg/mL] | EC50 of killing, DU145 prostate cancer cells, CellTiter Glo, 96 hrs [µg/mL] | EC50 of killing, H1650 NSCLC cells, CellTiter Glo, 96 hrs [µg/mL] | EC50 of killing, HCC15 NSCLC cells, CellTiter Glo, 96 hrs [µg/mL] | EC50 of killing, HCC44 NSCLC cells, CellTiter Glo, 96 hrs [µg/mL] | EC50 of killing, HCC78 NSCLC cells, CellTiter Glo, 96 hrs [µg/mL] | EC50 of killing, HCC827 NSCLC cells, CellTiter Glo, 96 hrs [µg/mL] | EC50 of killing, PC3 prostate cancer cells, CellTiter Glo, 96 hrs [µg/mL] | EC50 of killing, H460 NSCLC cells, CellTiter Glo, 96 hrs [µg/mL] | EC50 of killing, H1299 NSCLC cells, CellTiter Glo, 96 hrs [µg/mL] |
| --- | --- | --- | --- | --- | --- | --- | --- | --- | --- | --- |
| B1 | > 1 | 1 | > 1 | > 1 | > 1 | > 1 | > 1 | 0.1 |  |  |
| B2 | > 1 | 0.1 | ~1 |  | ~1 |  | > 1 | 1 | ~0.1 | > 1 |

Same assay, conditions: not given

| Binder | EC50 of killing, LNCAP prostate cancer cells, CellTiter Glo, 96 hrs [µg/mL] |
| --- | --- |
| B2 | 0.01 |

Each binder was assayed against T1, Cynomolgus monkey CDCP1 (Macaca fascicularis, UniProt A0A2K5VLA8) (assay: Octet BLI, Ab on Protein A sensor, recombinant CDCP1 analyte).
T1 construct: recombinant ectodomain from CHO cells; construct not given; also called cyCDCP1; BBP468

| Binder | Kd [nM] |
| --- | --- |
| B3 | 1 |
| B4 | 45 |
| B5 | > 500 |
| B6 | 18 |
| B7 | 190 |
| B8 | 13 |
| B9 | 75 |
| B10 | 8 |
| B11 | 5 |
| B12 | 80 |
| B13 | 83 |
| B14 | 27 |
| B15 | 12 |
| B16 | 500 |
| B17 | > 500 |
| B18 | 4 |
| B19 | < 1 |

These binders were tested against T2, recombinant human CDCP1 ECD (AA30-667) with C-terminal His tag (human, UniProt Q9H5V8 30-667) in the same assay as above.
T2 construct: range 30-667; also called FL-ECD; recombinant FL-ECD
Procedure: Affinity: The affinity of antibodies to various recombinant CDCP1 molecules was determined on an Octet Red (Pall, ForteBio) instrument. After loading reagents into a 96-well plate, the Octet Red with Protein A-conjugated biosensors was programmed as follows: 30 seconds for baseline #1; 120 seconds to immobilize the antibody; 30 seconds for baseline #2; 300 seconds for association of antibody to recombinant CDCP1; and 300-600 seconds for dissociation of recombinant CDCP1 from the antibody.

| Binder | Kd [nM] |
| --- | --- |
| B3 | < 1 |
| B4 | 45 |
| B5 | 20 |
| B6 | 7 |
| B7 | 25 |
| B8 | 6 |
| B9 | 17 |
| B10 | 1 |
| B11 | < 1 |
| B12 | 20 |
| B13 | 8 |
| B14 | 4 |
| B15 | 2 |
| B16 | 35 |
| B17 | 60 |
| B18 | 2 |
| B19 | < 1 |
